Test results reported in PMC10573690 (International Journal of Molecular Sciences, 2023).

How the values were obtained:
[1] = molecular target: T1, biotinylated EMPD-characteristic peptide (Homo sapiens, synthetic peptide of the …, biotin on the C-terminal lysine (K-biotin)); experiment: BLI; biotinylated EMPD peptide on streptavidin sensors (5 µg/mL); antibodies in two-fold dilutions from 250 nM; PBS with 1× Kinetics buffer, 25 °C; steady state value; conditions: both partners purified
T1 construct: added C-terminal lysine that carries the biotin; Held on streptavidin sensors or plates through the biotin; also called synthetic peptide ligand representing a section of the human EMPD; model peptide; source: synthetic peptide; bought: Fisher Scientific
T1 chain: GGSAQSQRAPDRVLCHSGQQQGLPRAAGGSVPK

[2] = molecular target: T2, IgE-Fc-B-cell receptor construct (3×FLAG tag-Cε2-Cε3-Cε4-EMPD-transmembrane-intracellular domain) on Edox … (Homo sapiens, UniProt P01854, strain); experiment: flow cytometry on cells; doxycycline-induced Edox cells, antibodies in graded concentrations, 30 min on ice in 2% BSA-PBS; detection with anti-human kappa light chain-FITC; conditions: one partner purified
T2 construct: Species is said only of the EMPD in general ('human EMPD'); also called EMPD-containing Fcε construct; Fcε; not shown: 3×FLAG, N-terminal, kept
Target sequence in this assay (P01854 429-546, change not shown): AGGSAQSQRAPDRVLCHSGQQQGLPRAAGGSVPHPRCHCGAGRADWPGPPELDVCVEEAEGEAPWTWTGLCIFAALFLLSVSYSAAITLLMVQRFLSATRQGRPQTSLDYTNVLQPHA

[3] = molecular target: T2, IgE-Fc-B-cell receptor construct …; experiment: cell-based or functional assay
Target sequence in this assay (P01854 whole entry, looked up, change not shown, the tested form may be a part): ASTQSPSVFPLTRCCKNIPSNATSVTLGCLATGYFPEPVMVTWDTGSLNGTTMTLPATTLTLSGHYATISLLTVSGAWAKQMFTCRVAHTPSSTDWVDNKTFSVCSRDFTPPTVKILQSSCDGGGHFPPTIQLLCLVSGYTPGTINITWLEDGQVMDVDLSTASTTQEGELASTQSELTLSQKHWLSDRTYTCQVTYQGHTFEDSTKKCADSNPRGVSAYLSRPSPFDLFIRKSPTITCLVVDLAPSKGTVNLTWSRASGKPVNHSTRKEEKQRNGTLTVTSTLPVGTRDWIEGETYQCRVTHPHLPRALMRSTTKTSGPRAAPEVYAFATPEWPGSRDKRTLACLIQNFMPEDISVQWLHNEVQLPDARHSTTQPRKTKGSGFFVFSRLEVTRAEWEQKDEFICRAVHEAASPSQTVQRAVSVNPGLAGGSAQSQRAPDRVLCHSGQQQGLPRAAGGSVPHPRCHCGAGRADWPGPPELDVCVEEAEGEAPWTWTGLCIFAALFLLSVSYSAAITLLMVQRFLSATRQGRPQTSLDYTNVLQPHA

[4] = molecular target: T1, biotinylated EMPD-characteristic peptide; experiment: ELISA; biotinylated EMPD peptide on streptavidin plate (30 nM); antibodies in 3-fold dilutions from 45 nM in 2% BSA-PBS, RT; detection with anti-human kappa chain-HRP; conditions: both partners purified

B1: 15cl12, chimeric antibody with human constant domains (antibody, V domains shown)
VH: QIQLQQSGAELVKPGASVKLSCKASGYTFTSYDINWVRQRPERGLDWIGWIFPGDGSSKYNENFKGKATLTTDKSSNTAYIHLSRLTSEDSAVYFCARWGKTFDYWGQGTTLTVSS
VL: DIVMSQSPSSLAVSVGEKVTMSCKSSQSLLYSRDQKNYLAWFQQKPGQSPKLLIYWASARESGVPDRFTGSGSGTDFTLTITSLKTEDLAVYYCQQFYNYPRTFGGGTKLEIK
In the case of B1, the Kd [1] is reported as 11 nM, the EC50 [2] is reported as 4 nM and the “decrease of surface Fcε (anti-FLAG staining, flow cytometry) on Edox cells after 4 h at 37 °C against incubation on ice” value (from here on “decrease of surface Fcε”) [3] is reported as > 80%.

B2: 15cl12_L328C coupled with MC-Val-Cit-PAB-MMAE (antibody-drug conjugate) (antibody, V domains shown)
VH: QIQLQQSGAELVKPGASVKLSCKASGYTFTSYDINWVRQRPERGLDWIGWIFPGDGSSKYNENFKGKATLTTDKSSNTAYIHLSRLTSEDSAVYFCARWGKTFDYWGQGTTLTVSS
VL: DIVMSQSPSSLAVSVGEKVTMSCKSSQSLLYSRDQKNYLAWFQQKPGQSPKLLIYWASARESGVPDRFTGSGSGTDFTLTITSLKTEDLAVYYCQQFYNYPRTFGGGTKLEIK
B2 was tested, and the EC50 [4] was 0.23 nM, the Kd [1] was 7.5 nM and the EC50 [2] was ~8 nM.

B3: quilizumab (antibody, V domains shown)
VH: EVQLVESGGGLVQPGGSLRLSCAASGFTFSDYGIAWVRQAPGKGLEWVAFISDLAYTIYYADTVTGRFTISRDNSKNTLYLQMNSLRAEDTAVYYCARDNWDAMDYWGQGTLVTVSS
VL: DIQMTQSPSSLSASVGDRVTITCRSSQSLVHNNANTYLHWYQQKPGKAPKLLIYKVSNRFSGVPSRFSGSGSGTDFTLTISSLQPEDFATYYCSQNTLVPWTFGQGTKVEIK
B3 was tested, and the “decrease of surface Fcε” value [3] was ~70%.

B4: ligelizumab (antibody, V domains shown)
VH: QVQLVQSGAEVMKPGSSVKVSCKASGYTFSWYWLEWVRQAPGHGLEWMGEIDPGTFTTNYNEKFKARVTFTADTSTSTAYMELSSLRSEDTAVYYCARFSHFSGSNYDYFDYWGQGTLVTVSS
VL: EIVMTQSPATLSVSPGERATLSCRASQSIGTNIHWYQQKPGQAPRLLIYYASESISGIPARFSGSGSGTEFTLTISSLQSEDFAVYYCQQSWSWPTTFGGGTKVEIK
notes: whole heavy chain, IgG1 format; whole light chain; IgG1; made in house; source: HEK293-6E, transfected, purified from supernatant (Protein A)
In the case of B4, the EC50 [2] is reported as ~0.1 nM and the “decrease of surface Fcε” value [3] is reported as > 80%.
